Experimental data from patent US20130323813, “PEPTIDES FOR THE SPECIFIC BINDING OF RNA TARGETS” (THE UNIVERSITY OF WESTERN AUSTRALIA, published 2013).

Key:
[1] = biological target: T1, PUM1 PUF GR (repeat 6 Gly12/Arg16) (Homo sapiens, UniProt Q14671 SEQ:1-351); experiment: EMSA; 10 mM HEPES pH 8.0, 50 mM KCl, 1 mM EDTA, RT; details: tags: intein-CBD cleaved for EMSA; label: 5'-fluorescein
T1 chain: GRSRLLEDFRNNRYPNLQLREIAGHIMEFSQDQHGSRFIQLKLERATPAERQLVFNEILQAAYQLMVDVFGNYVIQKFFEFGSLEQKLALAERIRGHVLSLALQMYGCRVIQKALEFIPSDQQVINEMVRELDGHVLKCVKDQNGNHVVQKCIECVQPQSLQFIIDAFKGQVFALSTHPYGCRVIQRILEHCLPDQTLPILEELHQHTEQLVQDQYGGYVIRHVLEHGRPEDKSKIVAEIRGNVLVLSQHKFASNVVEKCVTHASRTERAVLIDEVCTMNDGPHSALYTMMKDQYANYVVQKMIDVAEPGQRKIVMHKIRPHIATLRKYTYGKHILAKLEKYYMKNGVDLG
Method: (§1) Purified PUF domains were incubated at room temperature for 30 min with fluorescein labeled RNA oligonucleotides (Dharmacon) in 10 mM HEPES (pH 8.0), 1 mM EDTA, 50 mM KCl, 2 mM DTT, 0.1 mg/ml fatty acid-free BSA, and 0.02% Tween-20.

[2] = biological target: T2, PUM1 PUF CR (repeat 6 Cys12/Arg16) (Homo sapiens, UniProt Q14671 SEQ:1-351); experiment: EMSA; 10 mM HEPES pH 8.0, 50 mM KCl, 1 mM EDTA, RT; details: tags: intein-CBD cleaved for EMSA; label: 5'-fluorescein
T2 chain: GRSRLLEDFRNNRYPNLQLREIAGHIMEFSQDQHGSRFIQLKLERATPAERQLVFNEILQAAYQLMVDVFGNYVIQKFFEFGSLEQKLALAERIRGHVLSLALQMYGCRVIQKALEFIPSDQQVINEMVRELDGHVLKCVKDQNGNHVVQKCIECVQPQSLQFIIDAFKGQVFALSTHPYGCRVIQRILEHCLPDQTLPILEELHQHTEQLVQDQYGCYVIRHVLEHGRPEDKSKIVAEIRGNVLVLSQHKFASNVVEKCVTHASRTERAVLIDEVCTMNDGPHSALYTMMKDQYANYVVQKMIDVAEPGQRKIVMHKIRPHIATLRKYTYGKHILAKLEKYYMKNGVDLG
Method: as §1

B1: NREU3C (Fl) (ssRNA)
RNA: AUUGCAUAUA
What does the source list for B1?
binding result [1]: binds; binding result [2]: binds
